T1: plasma-derived human activated protein C (APC) (UniProt P04070 43-461)
T1 chain: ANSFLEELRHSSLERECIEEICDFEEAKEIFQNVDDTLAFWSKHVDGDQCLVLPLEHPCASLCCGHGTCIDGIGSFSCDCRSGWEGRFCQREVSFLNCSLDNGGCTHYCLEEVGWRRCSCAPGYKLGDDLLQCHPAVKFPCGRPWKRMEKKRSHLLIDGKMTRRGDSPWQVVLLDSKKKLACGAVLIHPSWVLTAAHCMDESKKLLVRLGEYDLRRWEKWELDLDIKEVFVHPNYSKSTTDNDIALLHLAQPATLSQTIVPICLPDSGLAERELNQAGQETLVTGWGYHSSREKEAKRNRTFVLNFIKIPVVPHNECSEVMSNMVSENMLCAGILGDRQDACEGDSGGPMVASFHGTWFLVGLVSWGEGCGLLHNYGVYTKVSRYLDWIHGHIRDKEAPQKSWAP

B1: TPP-24738 (antibody, V domains shown)
VH: EVQLVESGGGLVQPGGSLRLSCAASGFTFSNYYMNWVRQAPGKGLEWVGRIKSKTDGGTTDYAAPVKGRFTISRDDSKNSLYLQMNSLKTEDTAVYYCAREGDYFDYWGQGTLVTVSS
B2: TPP-26871 (antibody, V domains shown)
VH: EVQLVESGGGLVQPGGSLRLSCAASGFTFSNYYMNWVRQAPGKGLEWVSYISSSSSTIYYADSVKGRFTISRDDSKNSLYLQMNSLKTEDTAVYYCAREGDYFDYWGQGTLVTVSS
VL: DIVLTQSPASLAVSPGQRATITCKASQSVSSFGATFMHWYQQKPGQPPKLLIYLASNRASGVPDRFSGSGSGTDFTLTINPVEADDTANYYCQQNNEDPYTFGQGTKLEIKR
B3: TPP-26873 (antibody, V domains shown)
VH: B2 VH
VL: B2 VL with Q41L, P47S, K49Q, T78K, N80S, P81R, D85E, T87V, A88G, N89V
B4: TPP-26872 (antibody, V domains shown)
VH: B2 VH
VL: B2 VL with Q41L, P47S, K49Q
B5: TPP-26862 (antibody, V domains shown)
VH: B2 VH
VL: DIVMTQSPLSLPVTPGEPASISCRSSESVDSFGATFMHWYQQKPGQPPKLLIYLASNRASGVPDRFSGSGSGTDFTLKISRVEAEDVGVYYCQQNNEDPYTFGQGTKLEIKR
B6: TPP-26863 (antibody, V domains shown)
VH: B2 VH
VL: B5 VL with Q41L, P47S, K49Q
B7: TPP-26935 (antibody, V domains shown)
VH: EVQLVESGGGLVQPGGSLRLSCAASGFTFSNYYINWVRQAPGKGLEWVGDIRLKSNNYEKHYAESVKGRFTISRDDSKNSLYLQMNSLKTEDTAVYYCAREGDYFDYWGQGTLVTVSS
VL: EIVLTQSPGTLSLSPGERATLSCRASQSVSSFGATFMHWYQQKPGQPPKLLIYLASNRASGVPDRFSGSGSGTDFTLKISRVEAEDVGVYYCQQNNEDPYTFGQGTKLEIKR
B8: TPP-26864 (antibody, V domains shown)
VH: B2 VH
VL: B7 VL with Q27E, S30D, Q41L, P47S, K49Q
B9: TPP-26882 (antibody, V domains shown)
VH: B1 VH
VL: B7 VL with K78T, S80N, R81P, E85D, V87T, G88A, V89N
B10: TPP-26926 (antibody, V domains shown)
VH: B7 VH with I34M, N35S
VL: B2 VL with T78K, N80S, P81R, D85E, T87V, A88G, N89V
B11: TPP-26921 (antibody, V domains shown)
VH: B7 VH with I34M, N35S
VL: B7 VL with K78T, S80N, R81P, E85D, V87T, G88A, V89N
B12: TPP-26924 (antibody, V domains shown)
VH: B7 VH with I34M, N35S
VL: B2 VL with Q41L, P47S, K49Q
B13: TPP-26869 (antibody, V domains shown)
VH: B2 VH
VL: B7 VL with K78T, S80N, R81P, E85D, V87T, G88A, V89N
B14: TPP-26874 (antibody, V domains shown)
VH: B2 VH
VL: B2 VL with T78K, N80S, P81R, D85E, T87V, A88G, N89V
B15: TPP-26918 (antibody, V domains shown)
VH: B7 VH with I34M, N35S
VL: B2 VL with Q27E, S30D, T78K, N80S, P81R, D85E, T87V, A88G, N89V
B16: TPP-26934 (antibody, V domains shown)
VH: B7 VH
VL: B7 VL with K78T, S80N, R81P, E85D, V87T, G88A, V89N
B17: TPP-26870 (antibody, V domains shown)
VH: B2 VH
VL: B7 VL
B18: TPP-26894 (antibody, V domains shown)
VH: EVQLVESGGGLVQPGGSLRLSCAASGFTFSNYYMNWVRQAPGQGLEWMGRIIPILGIANYAQKFQGRFTISRDDSKNSLYLQMNSLKTEDTAVYYCAREGDYFDYWGQGTLVTVSS
VL: B7 VL with Q41L, P47S, K49Q
B19: TPP-26920 (antibody, V domains shown)
VH: B7 VH with I34M, N35S
VL: B7 VL with Q41L, P47S, K49Q
B20: TPP-26925 (antibody, V domains shown)
VH: B7 VH with I34M, N35S
VL: B2 VL with Q41L, P47S, K49Q, T78K, N80S, P81R, D85E, T87V, A88G, N89V
B21: TPP-24897 (antibody, V domains shown)
VL: EIVLTQSPGTLSLSPGERATLSCRASESVDSFGATFMHWYLQKPGQSPQLLIYLASNLESGVPARFSGSGSGTDFTLKISRVEAEDVGVYYCQQNNEDPYTFGQGTKLEIK
B22: TPP-24907 (antibody, V domains shown)
VL: EIVLTQSPGTLSLSPGERATLSCRASQSVSSFGATFMHWYQQKPGQPPKLLIYLASNRASGVPDRFSGSGSGTDFTLTINPVEADDTANYYCQQNNEDPYTFGQGTKLEIK
B23: TPP-24861 (antibody, V domains shown)
VL: DIVMTQSPLSLPVTPGEPASISCRSSESVDSFGATFMHWYQQKPGQPPKLLIYLASNRASGVPDRFSGSGSGTDFTLKISRVEAEDVGVYYCQQNNEDPYTFGQGTKLEIK
B24: TPP-24845 (antibody, V domains shown)
VL: DIVLTQSPASLAVSPGQRATITCKASQSVSSFGATFMHWYQQKPGQPPKLLIYLASNRASGVPDRFSGSGSGTDFTLKISRVEAEDVGVYYCQQNNEDPYTFGQGTKLEIK
B25: TPP-24833 (antibody, V domains shown)
VL: B24 VL with Q27E, S30D, Q41L, P47S, K49Q, R58L, A59E, D64A
B26: TPP-24827 (antibody, V domains shown)
VL: B24 VL with Q27E, S30D, K78T, S80N, R81P, E85D, V87T, G88A, V89N

Numbering of substitutions follows the chain as printed.

The source of these data is US20250188189A1 (published 2025).

The first assay deals with T1, plasma-derived human activated protein …. Kind of assay: SPR.
One may read the Kd as the free concentration of one partner at which half of the binding sites on the other are occupied at equilibrium, for simple one-to-one binding. Higher therefore signals weaker binding. As for B1, the Kd was found to be 1.81 nM.

A further assay shares this target. Kind of assay: SPR. The source holds these as a separate data set. For orientation: In SPR one partner is held on a chip, and binding of the other changes the refractive index at the surface.
Molecule B2 came in with an equilibrium dissociation constant (Kd) of 13.8 nM.
Still for that read-out and setting: in the case of B3 it was 11.2 nM; in that of B4, 12.8 nM.
The same measure, in the same setting: under B5 stands 13.5 nM.
Same read-out and setting: in the case of B6 it was 11.2 nM; in that of B7, 18.6 nM.
In the case of B8, the Kd is 8.79 nM.
On the same count and under the same terms, under B9 stands 169 nM; under B10, 30.5 nM.
The same measure, in the same setting: in the case of B11 it was 31.1 nM; in that of B12, 27.5 nM.
Same read-out and setting: under B13 stands 13.5 nM; under B14, 13.2 nM.
Molecule B15 had a Kd of 13.4 nM.
Still for that read-out and setting: in the case of B16 it was 19.8 nM.
On the same count and under the same terms, in the case of B17 it was 12.9 nM; in that of B18, 142 nM; in that of B19, 28.1 nM.
Same read-out and setting: under B20 stands 27.9 nM.

The next assay has the same target. As to the kind of experiment: SPR; head prints nM; kd/ka gives M.
For B17, the Kd stood at 40 nM.

For a further assay the target is unchanged. Kind of assay: SPR. This is another data set of the same source.
For B21, binding was characterised by a dissociation constant (Kd) of 47.9 nM.
Same read-out and setting: in the case of B22 it was 45.9 nM.
Same read-out and setting: under B23 stands 24.1 nM.
B24 registered a dissociation constant Kd of 54 nM.
Still for that read-out and setting: under B25 stands 49 nM.
Same read-out and setting: under B26 stands 31.7 nM.
